Reference: the supplement of paper PMC10567573

B1: INTS3 (parent)
chain: AQLQALRQKEVDFCISLLRERFME
B2: TRAF3IP2 (parent)
chain: YGHDYPRAAYQQVIQPALPGQPLP

Variants of: B1
Assay: protein stability index of a GFP-peptide fusion (GPS, HEK-293T) (PSI 1-6); higher = more stable
Settings: c terminus: a fixed tail appended
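Also: lentivirally expressed fusions sorted by FACS into six bins by GFP to DsRed ratio, PSI derived from sequencing read proportions per bin multiplied by bin number.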

Row | Variant | protein stability index
1 | R7V | 1.74
2 | R7S | 2.93
3 | R7W | 2.6
4 | R7Q | 2.73
5 | R7G | 4.64
6 | R7K | 2.71
7 | R7T | 3.43
8 | R7Y | 3.17
9 | F22N | 1.69
10 | F22G | 1.17
11 | F22E | 2.16
12 | F22P | 1.67
13 | F22D | 2.24
14 | F22R | 2.1
15 | F22Y | 2.21
16 | F22T | 1.97
17 | K9G | 2.51
18 | K9D | 1.9
19 | K9M | 2.65
20 | K9Y | 3.51
21 | K9H | 3.64
22 | K9P | 2.91
23 | K9L | 2.48
24 | A5V | 1.04

Row | Variant | protein stability index
25 | A5R | 2.15
26 | A5L | 3.11
27 | A5F | 4.25
28 | A5E | 2.24
29 | A5H | 2.44
30 | A5N | 2.61
31 | A5I | 2.07
32 | E24P | 1.31
33 | E24A | 3.89
34 | E24V | 2.95
35 | E24N | 2.72
36 | Q4I | 3.2
37 | Q4A | 3.65
38 | Q4V | 2.98
39 | Q4S | 1.55
40 | Q4C | 1.93
41 | Q4T | 3.02
42 | Q4R | 2.3
43 | Q4F | 1.83
44 | L3P | 1.62
45 | L3Q | 1.78
46 | L3G | 2.11
47 | L3R | 1.19
48 | L3D | 1.81

Row | Variant | protein stability index
49 | L3M | 2
50 | L3E | 2.21
51 | M23D | 1.95
52 | M23T | 1.85
53 | M23K | 2.84
54 | M23L | 2.29
55 | M23Q | 1.03
56 | M23G | 1.9
57 | M23N | 2.55
58 | M23P | 1.79
59 | M23I | 2.46
60 | Q2H | 4.58
61 | Q2T | 3.02
62 | Q2C | 2.98
63 | Q2R | 4.11
64 | Q2G | 3.4
65 | Q2N | 3.27
66 | Q2D | 3.29
67 | E10A | 2.86
68 | E10K | 2.2
69 | E10C | 1.02
70 | E10W | 1.53
71 | E10P | 2.72
72 | E10I | 2.25

Row | Variant | protein stability index
73 | E10R | 2.09
74 | E10G | 2.1
75 | E10L | 3.79
76 | L18F | 3.16
77 | L18T | 2.24
78 | L18D | 2.38
79 | L18R | 2.2
80 | L18E | 2.57
81 | L18C | 1.02
82 | I15E | 2.34
83 | I15T | 2.07
84 | I15Y | 2.3
85 | I15N | 2.46
86 | I15P | 2.07
87 | I15H | 2.37
88 | I15Q | 1.77
89 | V11H | 3.66
90 | V11Q | 1.81
91 | V11E | 2.54
92 | V11C | 1.29
93 | V11M | 3.61
94 | V11S | 1.67
95 | V11K | 1.7
96 | V11W | 2.14

Row | Variant | protein stability index
97 | V11D | 2.49
98 | V11P | 2.7
99 | V11N | 2.25
100 | V11L | 4.26
101 | A1K | 2.62
102 | A1T | 3.13
103 | A1N | 2.73
104 | A1I | 2.43
105 | A1W | 2.49
106 | A1Q | 2.43
107 | A1H | 3.79
108 | A1E | 2.65
109 | A1G | 2.93
110 | A1C | 3.01
111 | S16M | 4.38
112 | S16E | 3.24
113 | S16F | 4.27
114 | S16K | 1.65
115 | S16C | 3.15
116 | S16D | 2.09
117 | S16L | 1.85
118 | S16Y | 3.56
119 | F13W | 3.65
120 | F13I | 2.49

Row | Variant | protein stability index
121 | F13C | 3.42
122 | F13V | 2.7
123 | F13D | 1.55
124 | F13S | 2.19
125 | F13N | 2.37
126 | F13A | 1.09
127 | F13G | 2
128 | F13Q | 1.82
129 | F13R | 1.27
130 | F13T | 2.44
131 | R21G | 2.99
132 | R21D | 1.14
133 | R21W | 2.68
134 | R21E | 2.1
135 | Q8S | 3.06
136 | Q8L | 1.78
137 | Q8D | 2.83
138 | Q8H | 3.1
139 | Q8I | 3.36
140 | Q8Y | 4.01
141 | Q8T | 3.06
142 | Q8A | 2.62
143 | L6I | 1.93
144 | L6Y | 2.57

Row | Variant | protein stability index
145 | L6D | 1.96
146 | L6Q | 2.02
147 | L6E | 1.52
148 | L6M | 2.44
149 | L6V | 2.98
150 | L6W | 1.73
151 | L6K | 2.31
152 | L6A | 2.13
153 | L6T | 1.86
154 | R19Y | 2.94
155 | R19G | 1.37
156 | R19Q | 2.74
157 | C14S | 2.02
158 | C14G | 1.84
159 | C14Y | 2.16
160 | C14W | 1.96
161 | C14K | 1.93
162 | C14L | 2.93
163 | C14H | 1.94
164 | C14I | 2.68
165 | C14E | 1.75
166 | C14D | 2.03
167 | D12S | 3.29
168 | D12N | 1.59

Row | Variant | protein stability index
169 | D12I | 1.91
170 | D12Y | 2.09
171 | D12P | 2.05
172 | D12V | 4.29
173 | D12F | 1.05
174 | E20G | 3.34
175 | E20P | 2.08
176 | E20C | 2.38
177 | E20M | 2.92
178 | E20S | 5.14
179 | E20R | 2.49
180 | E20L | 2.34
181 | L17K | 2
182 | L17H | 1.65
183 | L17A | 2.03
184 | L17N | 2.1
185 | L17Q | 2.45
186 | L17W | 2.46
187 | L17E | 2.06

Variants of: B2
Assay: as above
Settings: c terminus: a fixed tail appended

Row | Variant | protein stability index
188 | Q21K | 2.21
189 | Q21L | 2.02
190 | Q21D | 2.58
191 | Q21F | 1.65
192 | Q21T | 2.1
193 | Q21M | 2.67
194 | Q21N | 2.08
195 | Q21I | 2.79
196 | Y10E | 2.17
197 | Y10I | 2.02
198 | Y10A | 1.79
199 | Y10R | 1.7
200 | D4F | 1.56
201 | D4T | 2.13
202 | D4E | 1.81
203 | D4Q | 1.85
204 | D4C | 1.8
205 | D4L | 1.73
206 | D4M | 1.66
207 | D4W | 2.08
208 | Q11G | 1.79
209 | Q11F | 3.98
210 | Q11W | 1.94
211 | Q11R | 1.59
212 | Q11M | 1.65

Row | Variant | protein stability index
213 | Q11I | 2.94
214 | Q11T | 3.14
215 | L23N | 2.09
216 | L23P | 1.54
217 | L23E | 1.8
218 | L23Q | 2.24
219 | L23Y | 1.7
220 | V13T | 1.83
221 | V13N | 2.09
222 | V13Y | 2.03
223 | V13D | 2.64
224 | V13S | 2.6
225 | A17M | 1.95
226 | A17R | 1.74
227 | A17V | 2.41
228 | A17K | 1.98
229 | A17D | 2.36
230 | Y1A | 3.77
231 | Y1T | 3.54
232 | Y1S | 3.75
233 | Y1W | 2.68
234 | Y1M | 3.31
235 | P22F | 2.56
236 | P22W | 1.26
237 | P22H | 1.71

Row | Variant | protein stability index
238 | P22I | 1.82
239 | Q15R | 2.24
240 | Q15K | 1.82
241 | Q15E | 2.1
242 | Q15M | 1.59
243 | Q15L | 2.23
244 | Q15V | 1.68
245 | P24I | 1.78
246 | P24Y | 1.6
247 | R7N | 2.82
248 | R7C | 2.44
249 | R7D | 3.34
250 | R7S | 2.65
251 | R7Y | 2.28
252 | R7E | 3.87
253 | P6N | 2.55
254 | P6F | 1.81
255 | P6V | 1.56
256 | P6K | 2.9
257 | P6M | 1.79
258 | P6L | 1.73
259 | L18P | 1.82
260 | L18F | 2.59
261 | L18E | 2.06
262 | L18I | 2.16

Row | Variant | protein stability index
263 | L18N | 2.25
264 | L18T | 1.76
265 | G20M | 2.27
266 | G20L | 1.38
267 | G20D | 2.78
268 | G20Y | 2.66
269 | G20C | 2.04
270 | G20W | 1.49
271 | P19I | 2.54
272 | P19W | 1.73
273 | P19K | 2.14
274 | P19F | 2.44
275 | P19T | 2.65
276 | P19N | 2.07
277 | P19A | 1.99
278 | P19C | 2.24
279 | P19L | 2.5
280 | P19Q | 1.54
281 | Q12L | 1.98
282 | Q12Y | 2.61
283 | Q12W | 2.41
284 | Q12V | 3.04
285 | Q12K | 2.37
286 | Q12F | 2.56
287 | Q12C | 3.07

Row | Variant | protein stability index
288 | Q12M | 3.06
289 | Q12I | 2.59
290 | Y5E | 3.88
291 | Y5N | 3.73
292 | Y5V | 3.46
293 | Y5S | 4.1
294 | Y5D | 4.01
295 | Y5A | 4.22
296 | Y5F | 2.52
297 | Y5K | 3.86
298 | Y5G | 3.78
299 | P16D | 2.22
300 | P16S | 1.39
301 | P16F | 2.74
302 | H3L | 1.86
303 | H3Y | 1.74
304 | H3A | 2.05
305 | H3E | 2.5
306 | H3C | 1.86
307 | H3Q | 2.04
308 | H3D | 2.02
309 | H3V | 2.4
310 | A8E | 2.03
311 | A8C | 1.94
312 | A8Y | 2.24

Row | Variant | protein stability index
313 | A8K | 2.14
314 | A8I | 2.57
315 | A8V | 2.59
316 | I14S | 2.09
317 | I14H | 1.88
318 | I14C | 2.49
319 | I14A | 1.5
320 | I14K | 2.31
321 | I14P | 2.14
322 | I14M | 1.49
323 | G2M | 2.15
324 | G2V | 1.83
325 | G2F | 3.36
326 | G2D | 3.43
327 | G2A | 2.41
328 | A9Y | 2.02
329 | A9G | 2.45
330 | A9R | 2.4
331 | A9P | 2.11
332 | A9E | 2.38
333 | A9K | 2.4
334 | A9L | 2.16
